Non-standard residues stand in square brackets, D forms with d. Residues, ends and D or L forms follow the SMILES beside them. No end group written: not given here. ξ: configuration not given here. ξGly(decyl) = CCCCCCCCCCC(N)C(=O)O; 2Adod = 2-amino-dodecanoic acid
Experiments:
Yes = molecular target: T1, Yes (Homo sapiens, UniProt P07947); test: In vitro Src family kinase activation study (Eurofins); type: biochemical; settings: Table 5
T1 construct: purchased Eurofins Pharma Discovery Services UK Limited
Description: (§1) The ability of polypeptides of the present invention to activate Lck was examined in vitro. Lck is member of the Src family of tyrosine kinases. In vitro Lck activation kinase studies were conducted by Eurofins Pharma Discovery Services UK Limited (Dundee Technology Park, Dundee, United Kingdom) using ATP concentrations within 15 μM of the apparent Km in the presence of peptide substrate (KVEKIGEGTYGVVYK; (SEQ ID NO: 63)) and test polypeptide in semi-log dose ranges. All results in Examples X percentage Lck activity relative to control (100%).
(§2) The ability of polypeptides of the present invention to activate Src family kinases was examined in vitro. Lck activation studies were carried out as described above and all Lck activity values are shown as percentage relative to control. In brief, Table 4 and Table 5 illustrate the selective activation of Lck kinase amongst the Src family kinases in the presence of the peptide RSKAKNPLY at 10 μM concentration.

Blk = molecular target: T2, Blk (Homo sapiens, UniProt P51451); test: as above; type: biochemical; settings: Table 5
T2 construct: purchased Eurofins Pharma Discovery Services UK Limited
Description: as §1, §2

Fgr = molecular target: T3, Fgr (Homo sapiens, UniProt P09769); test: as above; type: biochemical; settings: Table 5
T3 construct: purchased Eurofins Pharma Discovery Services UK Limited
Description: as §1, §2

cSRC = molecular target: T4, cSRC (Homo sapiens, UniProt P12931); test: as above; type: biochemical; settings: Table 5
T4 construct: purchased Eurofins Pharma Discovery Services UK Limited
Description: as §1, §2

Lyn = molecular target: T5, Lyn (Homo sapiens, UniProt P07948); test: as above; type: biochemical; settings: Table 5
T5 construct: purchased Eurofins Pharma Discovery Services UK Limited
Description: as §1, §2

Fyn = molecular target: T6, Fyn (Homo sapiens, UniProt P06241); test: as above; type: biochemical; settings: Table 5
T6 construct: purchased Eurofins Pharma Discovery Services UK Limited
Description: as §1, §2

Hck = molecular target: T7, Hck (Homo sapiens, UniProt P08631); test: as above; type: biochemical; settings: Table 5
T7 construct: purchased Eurofins Pharma Discovery Services UK Limited
Description: as §1
The ability of polypeptides of the present invention to activate Src family kinases was examined in vitro. Lck activation studies were carried out as described above and all Lck activity values are shown as percentage relative to control. […]

Lck(h) = molecular target: T8, Lck(h) (Homo sapiens, UniProt P06239); test: Western blot of Lck auto-phosphorylation at Y394 (anti-pY394 Lck); type: biochemical; settings: 10 μM and 30 μM; ATP, no peptide substrate; FIG. 2
T8 construct: purchased Eurofins Pharma Discovery Services UK Limited
Description: Western blot studies were performed by Eurofins Pharma Discovery Services UK Limited (Dundee, United Kingdom). In brief, Lck(h) was incubated in the presence of test peptide employing standard KinaseProfiler™ reaction conditions (Eurofins Pharma Discovery Services UK Limited) and an ATP concentration within 15 μM of the Km. Reactions were allowed to proceed for 40 minutes at room temperature before being stopped by the addition of SDS-sample buffer. In each case the Lck enzyme was diluted to yield 20 ng per 25 μl reaction. Appropriate controls in the absence of compound and peptide were also run as well as an untreated sample of both the Lck(h) and Lck(h) activated kinases. The resulting samples were then subjected to SDS-PAGE and western blot analysis using the antibodies 4G10 (anti-phospho-tyrosine antibody) (see FIG. 3) and anti-pY394 Lck (R&D Systems MAB7500) (see FIG. 2). An additional blot using the secondary detection antibody (anti-mouse-HRP) was also performed. The membranes were stained by Ponceau S to verify sample loading and effective protein transfer. The 4G10 antibody is a general anti-phospho-tyrosine antibody and there are several tyrosine residues in Lck but only one auto-phosphorylating tyrosine residue, i.e., at position Y394. […] Samples were as follows (numbers correspond to the lanes on the gel): • 1. Molecular weight markers • 2. […]

wild-type Jurkat cells = test: IL-2, IL-12 secretion and IL-2Ra expression in Jurkat cells (anti-CD3/anti-CD28), ELISA; type: cell-based, human; settings: 48 hours; for IL-2 secretion: Biotin-CD3, CD28 and avidin stimulation, supernatant ELISA, FIG. 14, FIG. 42A; for IL-12 secretion: Biotin-anti-CD3, anti-CD28 and avidin, FIG. 42B
Description: Cells were seeded at 1 million per well (12 well plate, 2 mL volume) and stimulated with Biotin-CD3, CD28, and avidin (5:5:1.25 μg). The cells were then treated with RSKAKNPLYR-(2Adod)4-NH2 at three concentrations as indicated plus vehicle control. The samples were then incubated for 48 hours at 37° C. after which supernatants were analysed for IL-2 content by ELISA.
Shown are Jurkat wild type (WT) cells and Lck deficient Jurkat cells (JCaM1.6) stimulated with anti-CD3/anti-CD28. 12 well plates were coated with anti-CD3 (5 μg/mL) solution made up in PBS (200 μL) and incubated at 37° C. overnight. The next day the anti-CD3 solution was aspirated and wells gently washed twice with media (1 mL, 10 minutes). Jurkat cells (WT and Lck Deficient) were seeded at 1 million per well in anti-CD3 coated 12 well plates, further stimulated with anti-CD28 (5 ug/mL) and at time zero treated with RSKAKNPLYR-(2Adod)4-NH2 (2.5 μM). Cells were incubated for 72 hours. For the IL-2 assay, left, supernatants were analysed for IL-2 content by ELISA. For the IL-2Ra assay, right, cells were lysed with 100 μL of lysis solution containing protease and phosphatase inhibitors as well as PP2 (10 μM). The collected cell lysates were subjected to the BCA protein assay. Cell lysates (40 μg protein) were then analysed for IL-2Ra by ELISA.
In two separate experiments, 5 million unstimulated JCam1.6 (Lck deficient) and 5 million 6.1 (WT) Jurkat cells, respectively, were seeded in T25 flasks. The cells were treated with RSKAKNPLYR-(2Adod)4-NH2 at 5 μM, 10 μM and 20 μM concentrations for 1 hour after which the cell suspensions were centrifuged and washed twice with fresh media. For each experiment, a mixture of Biotin-anti-CD3 and Avidin (5:1.25 ug) in 500 μL of media was added to the wells of a 12 well plate. After 10 minutes the unstimulated, washed cells were seeded at 1 million cells per well and the cell suspension made up to 2 mL volume with media. The samples were then further stimulated with anti-CD28 (5 ug/mL), after which the samples were incubated for 48 hours at 37° C. The supernatants (100 μL, n=3), were then analyzed for IL-2 content.
12 well plates were coated with anti-CD3 (5 μg/mL) solution made up in PBS (200 μL) and incubated at 37° C. overnight. […] Cells were incubated for 24 hours and supernatants were then analysed for IL-2 by ELISA.
12 well plates were coated with anti-CD3 (5 μg/mL) solution made up in PBS (200 μL) and incubated at 37° C. overnight. […] Cell lysates (40 μg protein) were then analysed for IL-2Ra by ELISA.
12 well plates were coated with anti-CD3 (5 μg/mL) solution made up in PBS (200 μL) and incubated at 37° C. overnight. […] Cells were incubated for 72 hours and the supernatants were then analysed for IL-2 by ELISA. […]

Lck = molecular target: T9, Lck (Homo sapiens, UniProt P06239); test: In vitro Lck activation kinase study (Eurofins); type: biochemical
T9 construct: purchased Eurofins Pharma Discovery Services UK Limited
Description: as §1, §2
The effect of modification of cationic amino acid positions and substitutions of the peptide RSKAKNPLY was examined. In brief, peptides with amino acid sequence changes compared to the peptide Pep9 (RSKAKNPLY) were assessed for the ability to stimulate Lck activity. All results are shown as percentage relative to control (100%).
Lck activity was evaluated as described in Example 1 and all Lck activity values are shown as percentage relative to control (100%). For ease of description, the polyamide moiety is referred to by “nCy” wherein n is the number of repeating units of the polyamide moiety, Cy is the number of carbon atoms of the R group in each repeating unit, and each R group is a saturated, linear carbon chain. Thus, in the present example, “4C10” is to be taken to refer to a polyamide moiety as shown in Scheme 1 above which has 4 repeating units (n=4) in which the R group of each repeating unit is a saturated, carbon side chain that is 10 carbon atoms in length (e.g. four 2-amino dodecanoic acids).

T9 sequence (P06239 whole entry): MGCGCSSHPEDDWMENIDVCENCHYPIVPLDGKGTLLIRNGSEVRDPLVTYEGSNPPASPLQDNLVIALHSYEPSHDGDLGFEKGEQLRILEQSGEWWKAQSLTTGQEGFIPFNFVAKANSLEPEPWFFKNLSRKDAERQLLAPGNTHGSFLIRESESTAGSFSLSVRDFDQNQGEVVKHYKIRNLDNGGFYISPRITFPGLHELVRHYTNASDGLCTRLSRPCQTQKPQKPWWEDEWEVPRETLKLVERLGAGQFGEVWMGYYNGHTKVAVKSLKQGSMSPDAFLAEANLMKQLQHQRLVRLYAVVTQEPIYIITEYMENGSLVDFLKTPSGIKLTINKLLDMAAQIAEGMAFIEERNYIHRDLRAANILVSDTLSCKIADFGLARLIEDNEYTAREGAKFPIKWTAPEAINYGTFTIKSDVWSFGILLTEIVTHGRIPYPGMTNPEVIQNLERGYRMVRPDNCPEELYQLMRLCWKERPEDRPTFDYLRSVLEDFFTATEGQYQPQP
T7 sequence (P08631 whole entry, species assumed): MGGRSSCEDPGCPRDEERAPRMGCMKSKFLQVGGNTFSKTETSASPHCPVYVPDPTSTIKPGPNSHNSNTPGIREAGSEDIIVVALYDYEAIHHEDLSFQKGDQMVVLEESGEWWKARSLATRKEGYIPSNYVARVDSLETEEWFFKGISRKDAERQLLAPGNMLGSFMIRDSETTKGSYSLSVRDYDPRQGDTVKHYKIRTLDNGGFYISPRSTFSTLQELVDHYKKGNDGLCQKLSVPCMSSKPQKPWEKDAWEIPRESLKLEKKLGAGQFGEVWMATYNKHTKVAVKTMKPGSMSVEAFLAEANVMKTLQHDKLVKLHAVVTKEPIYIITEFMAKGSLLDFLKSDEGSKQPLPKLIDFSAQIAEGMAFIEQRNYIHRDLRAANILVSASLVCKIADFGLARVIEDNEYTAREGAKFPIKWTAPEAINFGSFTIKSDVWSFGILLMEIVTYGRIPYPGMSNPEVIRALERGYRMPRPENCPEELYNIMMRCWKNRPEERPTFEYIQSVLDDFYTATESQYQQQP
T1 sequence (P07947 whole entry, species assumed): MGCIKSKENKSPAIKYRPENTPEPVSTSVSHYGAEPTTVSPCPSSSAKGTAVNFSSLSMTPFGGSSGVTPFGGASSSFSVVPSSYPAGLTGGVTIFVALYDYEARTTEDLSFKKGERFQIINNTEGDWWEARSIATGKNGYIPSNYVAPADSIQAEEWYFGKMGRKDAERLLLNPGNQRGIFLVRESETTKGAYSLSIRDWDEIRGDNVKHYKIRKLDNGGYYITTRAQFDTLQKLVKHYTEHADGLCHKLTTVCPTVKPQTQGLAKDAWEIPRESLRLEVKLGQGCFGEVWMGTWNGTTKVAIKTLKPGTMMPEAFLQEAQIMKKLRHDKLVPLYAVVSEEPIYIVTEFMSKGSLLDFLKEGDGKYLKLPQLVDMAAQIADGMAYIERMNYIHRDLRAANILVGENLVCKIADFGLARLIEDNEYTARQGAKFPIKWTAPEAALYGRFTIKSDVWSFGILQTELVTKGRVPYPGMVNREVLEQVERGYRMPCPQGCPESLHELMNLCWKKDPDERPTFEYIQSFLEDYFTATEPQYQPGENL
T5 sequence (P07948 whole entry, species assumed): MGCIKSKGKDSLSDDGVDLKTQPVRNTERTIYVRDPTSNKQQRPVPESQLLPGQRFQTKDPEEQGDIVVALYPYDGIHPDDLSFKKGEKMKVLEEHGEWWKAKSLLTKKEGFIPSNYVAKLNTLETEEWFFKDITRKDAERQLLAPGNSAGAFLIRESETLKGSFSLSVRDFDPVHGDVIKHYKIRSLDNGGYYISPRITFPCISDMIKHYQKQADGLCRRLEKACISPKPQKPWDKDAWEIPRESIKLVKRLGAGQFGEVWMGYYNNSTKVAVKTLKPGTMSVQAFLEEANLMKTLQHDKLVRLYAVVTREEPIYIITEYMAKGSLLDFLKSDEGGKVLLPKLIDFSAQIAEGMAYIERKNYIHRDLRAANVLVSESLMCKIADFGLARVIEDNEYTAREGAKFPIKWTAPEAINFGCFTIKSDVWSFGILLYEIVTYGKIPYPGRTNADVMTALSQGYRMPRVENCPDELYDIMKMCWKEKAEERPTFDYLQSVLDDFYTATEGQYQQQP
T8 sequence (P06239 whole entry): as the sequence (P06239 whole entry) above
T6 sequence (P06241 whole entry, species assumed): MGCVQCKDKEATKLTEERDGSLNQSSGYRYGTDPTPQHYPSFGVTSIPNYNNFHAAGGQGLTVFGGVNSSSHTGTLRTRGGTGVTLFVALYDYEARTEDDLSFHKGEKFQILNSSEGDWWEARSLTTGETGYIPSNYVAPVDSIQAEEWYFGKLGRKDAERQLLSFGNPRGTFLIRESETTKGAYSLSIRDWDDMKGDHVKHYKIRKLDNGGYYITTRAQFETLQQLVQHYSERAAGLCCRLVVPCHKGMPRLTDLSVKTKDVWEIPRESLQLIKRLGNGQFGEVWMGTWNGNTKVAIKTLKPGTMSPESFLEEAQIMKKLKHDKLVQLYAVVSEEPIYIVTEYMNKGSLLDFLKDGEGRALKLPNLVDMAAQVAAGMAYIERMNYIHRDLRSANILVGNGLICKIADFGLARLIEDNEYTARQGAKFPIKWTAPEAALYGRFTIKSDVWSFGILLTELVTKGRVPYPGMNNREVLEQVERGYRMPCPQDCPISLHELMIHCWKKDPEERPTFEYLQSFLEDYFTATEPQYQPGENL
T2 sequence (P51451 whole entry, species assumed): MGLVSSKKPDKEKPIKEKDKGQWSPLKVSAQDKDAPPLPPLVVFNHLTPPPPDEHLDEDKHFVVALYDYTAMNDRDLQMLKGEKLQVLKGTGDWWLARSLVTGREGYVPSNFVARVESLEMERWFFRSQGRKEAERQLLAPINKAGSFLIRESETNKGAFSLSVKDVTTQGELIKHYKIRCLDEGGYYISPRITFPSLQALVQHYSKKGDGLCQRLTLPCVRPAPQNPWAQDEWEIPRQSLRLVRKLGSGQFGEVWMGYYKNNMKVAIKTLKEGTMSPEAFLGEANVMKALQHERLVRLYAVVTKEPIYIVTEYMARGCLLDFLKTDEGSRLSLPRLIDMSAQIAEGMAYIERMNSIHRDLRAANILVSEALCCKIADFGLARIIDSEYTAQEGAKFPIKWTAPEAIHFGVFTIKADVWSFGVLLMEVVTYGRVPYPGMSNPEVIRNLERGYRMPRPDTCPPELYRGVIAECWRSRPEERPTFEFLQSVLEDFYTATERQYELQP

RVKVKVVVV
Lck Activity (1 μM), kinase Yes (Yes; 1 μM): 0%
Lck Activity (10 μM), kinase Yes (Yes; 10 μM): 0%
Lck Activity (1 μM), kinase Blk (Blk; 1 μM): 0%
Lck Activity (10 μM), kinase Blk (Blk; 10 μM): 0%
Lck Activity (1 μM), kinase Fgr (Fgr; 1 μM): 0%
Lck Activity (10 μM), kinase Fgr (Fgr; 10 μM): 0%
Lck Activity (1 μM), kinase c-Src (cSRC; 1 μM): 0%
Lck Activity (10 μM), kinase c-Src (cSRC; 10 μM): 0%
Lck Activity (1 μM), kinase Lyn (Lyn; 1 μM): 0%
Lck Activity (10 μM), kinase Lyn (Lyn; 10 μM): 0%
Lck Activity (1 μM), kinase Fyn (Fyn; 1 μM): 0%
Lck Activity (10 μM), kinase Fyn (Fyn; 10 μM): 0%
Lck Activity (1 μM), kinase Hck (Hck; 1 μM): 0%
Lck Activity (10 μM), kinase Hck (Hck; 10 μM): 0%

RSKAKNPLY
auto-phosphorylation of Lck at Y394 (Lck(h)): induces a dose-dependent auto-phosphorylation of Lck
IL-2 secretion (wild-type Jurkat cells): increase IL-2 secretion
IL-12 secretion (wild-type Jurkat cells): increase IL-12 secretion

CCCCCCCCCCC(N)C(=O)NC(CCCCCCCCCC)C(=O)O (stereo not drawn) [H-(2Adod)2-OH]
Lck activation above control (1 μM) (Lck; Table 7): 0%
Lck activation above control (10 μM) (Lck; 10 μM, Table 7): 18%

CCCCCCCCCCC(N)C(=O)O (stereo not drawn) [H-(2Adod)1-OH]
Lck activation above control (1 μM) (Lck; Table 7): 0%
Lck activation above control (10 μM) (Lck; 10 μM, Table 7): 0%

RSKAKNPLYR-(2Adod)4-OH (RSKAKNPLYR-{2Adod-2Adod-2Adod-2Adod-OH}) [… coupled to four 2-amino dodecanoic acid residues, non-amidated]
Lck activation above control (1 μM) (Lck; Table 9): 252%
Lck activation above control (10 μM) (Lck; 10 μM, Table 9): 395%

DSEAENPLYD-(2Adod)4-NH2 (DSEAENPLYD-{2Adod-2Adod-2Adod-2Adod-NH2}) [DSEAENPLYD-(2-Adod)4-NH2, anionic residues at 1, 3, 5, 10 in place of Arg and Lys]
Lck activation (FIG. 30) (Lck; cationic versus anionic residues): does not increase the activity of Lck

RSKAKNPLYR
auto-phosphorylation of Lck at Y394 (Lck(h)): does not increase
IL-2 secretion (wild-type Jurkat cells): increase IL-2 secretion
IL-12 secretion (wild-type Jurkat cells): not

CCCCCCCCCCC(N)C(=O)NC(CCCCCCCCCC)C(=O)NC(CCCCCCCCCC)C(=O)NC(CCCCCCCCCC)C(=O)O (stereo not drawn) [H-(2Adod)4-OH] (H-[ξGly(decyl)][ξGly(decyl)][ξGly(decyl)][ξGly(decyl)]-OH)
Lck activation above control (1 μM) (Lck; Table 7): 0%
Lck activation above control (10 μM) (Lck; 10 μM, Table 7): 0%

CCCCCCCCCCC(N)C(=O)NC(CCCCCCCCCC)C(=O)NC(CCCCCCCCCC)C(=O)O (stereo not drawn) [H-(2Adod)3-OH]
Lck activation above control (1 μM) (Lck; Table 7): 0%
Lck activation above control (10 μM) (Lck; 10 μM, Table 7): 0%

RSKAKNPLYR-1C10-OH (RSKAKNPLYR-{2Adod-OH}) [… coupled at the C-terminal end toone 2-amino dodecanoic acid residue]
Lck Activity 10 μM (Lck; 10 μM, Table 8): 221%
Lck Activity 30 μM (Lck; 30 μM, Table 8): 277%

Reference: patent US11912789B2, “Peptide activating agent” (Interk Peptide Therapeutics Limited, priority 2018, dated 2024)
